This is an account of results in article PMC6405639.

Assay [1] concerns the target Y2R_cysteine_deficient_eYFP (in HEK293 cells) (human) (UniProt P49146). Put plainly: radioligand binding; displacement of 60 pM [125I]-PYY from membrane preparations (0.75 μg protein) of transiently transfected HEK293 cells; HBSS with 1% BSA, room temperature, 3 h; filtration.
The target is the same in assay [2].
The target is the same in assay [3]. The source holds these as a separate data set.

Y2R_cysteine_deficient_eYFP (in HEK293 cells) (human), sequence (P49146 other isoform, or with tags, fused parts or gaps): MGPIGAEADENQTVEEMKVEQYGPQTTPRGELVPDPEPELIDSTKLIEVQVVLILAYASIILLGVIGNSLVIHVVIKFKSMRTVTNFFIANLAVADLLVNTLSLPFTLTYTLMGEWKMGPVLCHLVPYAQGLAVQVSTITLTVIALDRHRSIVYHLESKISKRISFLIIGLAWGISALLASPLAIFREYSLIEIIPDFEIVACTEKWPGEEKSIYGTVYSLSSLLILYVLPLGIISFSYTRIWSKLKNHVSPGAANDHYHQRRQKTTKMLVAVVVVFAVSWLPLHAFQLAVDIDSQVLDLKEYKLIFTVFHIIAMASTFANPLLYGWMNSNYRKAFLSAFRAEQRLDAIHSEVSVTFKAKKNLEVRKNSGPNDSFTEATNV

In general, IC50 refers to the point on the concentration scale where inhibition reaches its midpoint. Low values mean greater potency, high ones weaker potency. A word on the Ki: it is a measure of affinity in units of concentration, obtained from inhibition or displacement. Read a low Ki as a stronger hold on the target. In assay [1], 5(6)-TAMRA-Ahx(5-24)NPY (peptide) yielded an IC50 of 39 nM and a Ki of 11.2 nM. In assay [2], this substance yielded an EC50 of IP-one accumulation in HEK293 cells co-transfected with the receptor and the chimeric G protein GαΔ6qi4myr of 3.4 nM; an Emax of IP-one accumulation, normalised to the Y2R/NPY curve of 95%. Also, the potency in the IP-one accumulation assay in assay [3] was found to be 3.6 nM.

In assay [2], “[K^22[(Ahx)2-biotin]Bpa^27]NPY (peptide)” had an EC50 of IP-one accumulation in HEK293 cells co-transfected with the receptor and the chimeric G protein GαΔ6qi4myr of 4 nM; an Emax of IP-one accumulation, normalised to the Y2R/NPY curve of 102%.
